Measured values: PMC10641069, “Intra- and inter-molecular regulation by intrinsically-disordered regions governs PUF protein RNA binding” (Nature Communications, 2023)
Residue numbers refer to the chain shown, from its start. Entries after “also recorded” stand apart in the source; their conditions may differ. Read-outs that look alike come from different tables or passages of the source.

T1: FBF-2 RBD+CT;LST-1 B peptide (Caenorhabditis elegans;Caenorhabditis …, UniProt Q09312;P91820 164-632;67-98, |)
T1 sequence 1: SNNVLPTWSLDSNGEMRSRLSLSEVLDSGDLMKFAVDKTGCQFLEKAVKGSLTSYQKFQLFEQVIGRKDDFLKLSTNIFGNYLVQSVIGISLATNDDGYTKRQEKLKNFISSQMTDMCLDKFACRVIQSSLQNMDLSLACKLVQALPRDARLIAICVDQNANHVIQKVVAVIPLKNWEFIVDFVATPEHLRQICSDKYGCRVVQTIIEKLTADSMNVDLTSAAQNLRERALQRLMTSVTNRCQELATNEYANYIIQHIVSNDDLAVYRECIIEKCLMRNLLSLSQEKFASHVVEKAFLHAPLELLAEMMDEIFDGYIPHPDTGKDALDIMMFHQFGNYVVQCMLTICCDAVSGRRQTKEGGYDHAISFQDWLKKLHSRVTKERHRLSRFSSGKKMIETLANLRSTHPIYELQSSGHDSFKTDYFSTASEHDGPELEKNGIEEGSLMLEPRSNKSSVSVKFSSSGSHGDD
T1 sequence 2: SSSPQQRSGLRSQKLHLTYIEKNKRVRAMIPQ

T2: FBF-2 RBD+CT L610A;LST-1 B peptide (Caenorhabditis elegans;Caenorhabditis …, UniProt Q09312;P91820 164-632;67-98, L610A|)
T2 sequence 1: T1 sequence 1 with L447A
T2 sequence 2: T1 sequence 2

T3: FBF-2 RBD+CT;LST-1 A peptide (Caenorhabditis elegans;Caenorhabditis …, UniProt Q09312;P91820 164-632;19-50, |)
T3 sequence 1: T1 sequence 1
T3 sequence 2: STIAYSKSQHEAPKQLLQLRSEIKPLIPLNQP


Legend:
FBF-2 RBD + CT L610A = target: T4, FBF-2 RBD + CT L610A (Caenorhabditis elegans, UniProt Q09312, L610A); assay type: binding, C. elegans; conditions: pH 7.4
T4 construct: A cDNA fragment encoding C. elegans FBF-2 RBD + CT (residues 164-632) was cloned into the pSMT3 vector; His6-SUMO (N, cleaved yes); made in house; host or cells: E. coli BL21-CodonPlus (DE3)-RIL (as for wild type)
T4 sequence (Q09312 164-632 L610A): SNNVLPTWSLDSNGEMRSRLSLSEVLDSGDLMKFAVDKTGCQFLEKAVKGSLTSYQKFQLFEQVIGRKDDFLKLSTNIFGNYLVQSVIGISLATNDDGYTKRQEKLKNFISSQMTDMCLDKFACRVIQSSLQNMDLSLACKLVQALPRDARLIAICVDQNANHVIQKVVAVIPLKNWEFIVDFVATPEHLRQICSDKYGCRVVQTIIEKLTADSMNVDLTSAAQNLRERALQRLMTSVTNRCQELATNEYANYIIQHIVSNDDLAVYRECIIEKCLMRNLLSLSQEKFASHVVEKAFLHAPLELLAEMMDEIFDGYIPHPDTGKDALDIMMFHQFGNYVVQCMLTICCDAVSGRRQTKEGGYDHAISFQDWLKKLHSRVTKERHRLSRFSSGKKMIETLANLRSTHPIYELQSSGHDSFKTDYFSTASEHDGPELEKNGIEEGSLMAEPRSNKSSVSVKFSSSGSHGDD

gld-1 FBEa RNA = conditions: LST-1 peptide with FBF-2 RBD (no CT); cited from earlier work
Excerpt: LST-1 is expressed in GSCs in response to signaling from the stem cell niche. The LST-1 protein is largely unstructured (Fig. 1b), including an N-terminal region that is sufficient for self-renewal of GSCs[22]. This LST-1 IDR region harbors two PUF Interacting Motifs (PIMs), LST-1 A and LST-1 B, that interact with FBF-2, each with a KxxL sequence[17],[22]. Crystal structures of FBF-2 bound to LST-1 A or B identify a seven-residue core region, including the KxxL sequence, that binds to FBF-2 with similar peptide backbone structure[17],[18]. The two LST-1 PIMs are biologically redundant for ... || If the FBF-2 CT reduces RNA-binding affinity (Fig. 3b) and competes with LST-1 for binding (Fig. 2c, d), why then does FBF-2 depend on LST-1 to repress RNAs in nematodes? To address this question, we explored RNA-binding affinities of FBF-2 RBD + CT in the presence of either LST-1 A or LST-1 B (Fig. 6; Supplementary Table 3). In contrast to results with FBF-2 RBD alone[17],[18], both LST-1 A and LST-1 B increased the RNA-binding affinity of FBF-2 RBD + CT.

[1] = target: T1, FBF-2 RBD+CT;LST-1 B peptide; test: EMSA; 50 uM LST-1 B; EMSA: FBF-2 in 20 mM HEPES pH 7.4, 150 mM NaCl, 0.5 mM TCEP mixed 1:1 with 5 nM final RNA in 10 mM HEPES pH 7.4, 0.01% Tween 20, 0.1 mg/ml BSA, 0.1 mg/ml yeast; conditions: protein: recombinant;recombinant; tags: none (His6-SUMO removed with Ulp1);none (His6-SUMO removed with Ulp1); copies: 1;1; label: 3'-Cy5
[2] = target: T2, FBF-2 RBD+CT L610A;LST-1 B peptide; test: as above; conditions: protein: recombinant;recombinant; tags: none (His6-SUMO removed with Ulp1);none (His6-SUMO removed with Ulp1); copies: 1;1; label: 3'-Cy5
[3] = target: T3, FBF-2 RBD+CT;LST-1 A peptide; test: EMSA; 150 uM LST-1 A; EMSA: FBF-2 in 20 mM HEPES pH 7.4, 150 mM NaCl, 0.5 mM TCEP mixed 1:1 with 5 nM final RNA in 10 mM HEPES pH 7.4, 0.01% Tween 20, 0.1 mg/ml BSA, 0.1 mg/ml yeast; conditions: protein: recombinant;recombinant; tags: none (His6-SUMO removed with Ulp1);none (His6-SUMO removed with Ulp1); copies: 1;1; label: 3'-Cy5

Molecule	∆G (FBF-2 RBD + CT L610A) [kcal/mol]	-T∆S (FBF-2 RBD + CT L610A; replicate 1, 20 °C) [kcal/mol]	∆G (FBF-2 RBD + CT L610A; replicate 1, 20 °C) [kcal/mol]	∆H (FBF-2 RBD + CT L610A; replicate 1, 20 °C) [kcal/mol]	-T∆S (FBF-2 RBD + CT L610A; replicate 2, 20 °C) [kcal/mol]	∆H (FBF-2 RBD + CT L610A; replicate 2, 20 °C) [kcal/mol]	effect on RNA-binding affinity of FBF-2 RBD (gld-1 FBEa RNA)	Kd [1] [nM]	Kd [2] [nM]	Kd [3] [nM]
LST-1 B: LST-1 B peptide, residues 67–98, expressed in E. coli (SSSPQQRSGLRSQKLHLTYIEKNKRVRAMIPQ; left off: His6-SUMO, N-terminal, cleaved)	-9.85	6	-9.56	-15.5	6.98	-16.8	decreased the RNA-binding affinity; also recorded: decreases RNA-binding affinity	–	–	–
AUCAUGUGCCAUAC (ssRNA) [gld-1 FBEa RNA (EMSA)]	–	–	–	–	–	–	–	68 ± 21	82 ± 18	114 ± 10
